These results are taken from publication PMC4081050.

Substrate in the data set: O=C(O)[C@@H](O)[C@H](O)[C@H](O)[C@@H](O)C(=O)O
Kind of data set: purified protein. Particulars: dehydration, 20 mM HEPES pH 7.9, 5 mM MgCl2, 1 μM enzyme.

B1: A9CG74 (GalrD-III) (Agrobacterium fabrum str. C58) (protein)
chain: MKIDRMRVFVTRDKDRPRVIVALDTDDGMTGWGECYNHGPDLALPPVLDYLYNFLAGQDPTRVEFLYNLMLQQNRFPPGALGLSAISALDHCLWDLAAKAVGVPVYKLLGGEVRNRIKVYAGVYTAPDAPAARDEFDRLNEGWGFSAFKLSPWRVDIHAHRWGEVVRSSAEYFRTLRETVRADYDIAFDAHAKIFEPSAARQLGNALAPYDPLFYEEPLRPENIEMYGDLKQGLNCTLATGESLYNRNEFLRLLQVKGADIIQPDICVVGGISEMRRIATLAEAHFVSIAPHNPMGPLATAVNVHFCAVQQNFRILEYRLPKGQVYAYGGNDLVKEEDVTRYVVDPYLPRDGYLELRPDRPGWGVEMDEKAMQEDGYVHWQRRVPKRPDGSYAFA
For the protein B1, the Km turned out to be 80 ± 30 µM, the kcat stood at 0.12 ± 0.05 s⁻¹ and the kcat/Km turned out to be 1500 M⁻¹ s⁻¹.
